Experimental data as given in doi:10.1101/343368.

Key:
Experiment in all cases: GO/AuNP colorimetric aptasensor
[1] = target: T1, beta-lactoglobulin (milk (species ), UniProt P02754 17-178)
T1 sequence: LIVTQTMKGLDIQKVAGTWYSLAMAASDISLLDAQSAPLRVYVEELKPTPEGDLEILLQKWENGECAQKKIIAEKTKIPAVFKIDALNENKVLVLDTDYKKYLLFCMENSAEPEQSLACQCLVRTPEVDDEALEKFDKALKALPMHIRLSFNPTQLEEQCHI

[2] = target: tropomyosin (Pen a 1) (shrimp (species ), UniProt Q3Y8M6 1-284)
[3] = target: T2, arachin (Ara h 1) (peanut, UniProt P43238 85-626)
T2 sequence: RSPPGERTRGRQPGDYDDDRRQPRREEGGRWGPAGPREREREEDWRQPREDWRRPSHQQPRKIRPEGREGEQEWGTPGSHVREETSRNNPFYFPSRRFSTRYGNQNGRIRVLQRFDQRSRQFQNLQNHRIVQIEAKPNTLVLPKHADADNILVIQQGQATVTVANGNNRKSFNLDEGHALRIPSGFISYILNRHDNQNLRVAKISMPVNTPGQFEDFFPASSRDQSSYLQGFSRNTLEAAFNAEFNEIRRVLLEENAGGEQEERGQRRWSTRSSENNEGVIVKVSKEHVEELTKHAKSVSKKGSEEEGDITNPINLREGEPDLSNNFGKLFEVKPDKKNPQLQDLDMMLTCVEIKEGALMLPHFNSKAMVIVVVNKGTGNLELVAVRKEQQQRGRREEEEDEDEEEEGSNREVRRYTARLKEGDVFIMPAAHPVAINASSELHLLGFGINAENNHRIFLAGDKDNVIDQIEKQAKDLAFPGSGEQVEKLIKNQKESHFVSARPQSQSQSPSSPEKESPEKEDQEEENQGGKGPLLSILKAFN

Chain of tropomyosin (Pen a 1) (Q3Y8M6 whole entry): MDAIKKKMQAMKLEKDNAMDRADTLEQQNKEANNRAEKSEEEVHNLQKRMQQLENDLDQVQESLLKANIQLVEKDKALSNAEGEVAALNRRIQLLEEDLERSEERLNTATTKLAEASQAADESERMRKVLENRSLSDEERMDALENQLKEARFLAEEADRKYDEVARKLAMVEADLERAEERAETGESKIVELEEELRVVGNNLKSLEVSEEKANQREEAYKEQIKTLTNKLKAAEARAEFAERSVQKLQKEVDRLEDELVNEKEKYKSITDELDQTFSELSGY

B1: beta-lactoglobulin (milk) aptamer (ssDNA)
DNA: ATACCAGCTTATTCAATTCGACGATCGGACCGCAGTACCCACCCACCAGCCCCAACATCATGCCCATCCGTGTGTGAGATAGTAAGTGCAATCT
modifications: biotin (position not given)
Does B1 bind [1]?
Result: binds

B2: tropomyosin (shrimp) aptamer (ssDNA)
DNA: TACTAACGGTACAAGCTACCAGGCCGCCAACGTTGACCTAGAAGCACTGCCAGACCCGAACGTTGACCTAGAAGC
modifications: biotin (position not given)
Does B2 bind [2]?
Result: binds

B3: arachin (peanut) aptamer (ssDNA)
DNA: TCGCACATTCCGCTTCTACCGGGGGGGTCGAGCGAGTGAGCGAATCTGTGGGTGGGCCGTAAGTCCGTGTGTGCGAA
modifications: biotin (position not given)
Does B3 bind [3]?
Result: binds
